Measurements published in paper doi:10.1101/2022.07.21.500940 (bioRxiv, 2022).

Target: Human PCNA (human, UniProt P12004 1-261)
Experiment: pull-down

Human PCNA, sequence (P12004 whole entry): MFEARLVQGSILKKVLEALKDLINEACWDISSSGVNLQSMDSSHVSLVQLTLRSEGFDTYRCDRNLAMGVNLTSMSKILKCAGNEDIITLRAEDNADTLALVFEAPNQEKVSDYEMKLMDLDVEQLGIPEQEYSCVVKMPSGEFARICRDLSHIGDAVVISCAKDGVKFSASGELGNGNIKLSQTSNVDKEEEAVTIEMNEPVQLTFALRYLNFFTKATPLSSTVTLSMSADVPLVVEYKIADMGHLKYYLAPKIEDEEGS

ARHPSTKVMKQMDIGVYFGLPPKRKEEKLL [GST-tagged SNM1A PIP box peptide (GST-PIP)]: binds.
